The labels stand for the following.
B1: Tryptophan synthase alpha chain, P0A877 (parent)
chain: MERYESLFAQLKERKEGAFVPFVTLGDPGIEQSLKIIDTLIEAGADALELGIPFSDPLADGPTIQNATLRAFAAGVTPAQCFEMLALIRQKHPTIPIGLLMYANLVFNKGIDEFYAQCEKVGVDSVLVADVPVEESAPFRQAALRHNVAPIFICPPNADDDLLRQIASYGRGYTYLLSRAGVTGAENRAALPLNHLVAKLKEYNAAPPLQGFGISAPDQVKAAIDAGAAGAISGSAIVKIIEQHINEPEKMLAALKVFVQPMKAATRS

The variants in the series derive from B1. The following applies: Escherichia coli (strain K12), pH 7.8, Urea, NMR, Potassium phosphate 58 mM, reversible: yes, structure 1WQ5, whole UniProt chain shown.

As to H244A, under “5 °C”, the “denaturant midpoint (higher = more stable)” value (“denaturant midpoint” for short) was 4.8 M and the unfolding free energy worked out at 16.7 kJ/mol.
As to P93A H244A, for the setting “25 °C”, the “denaturant midpoint” value was found to be 5.4 M and the unfolding free energy stood at 14.2 kJ/mol.
As for L100A, where the note is “25 °C”, the “denaturant midpoint” value came to 5.2 M and the unfolding free energy was 19.7 kJ/mol.
On to P96A, for which, under “25 °C”, the “denaturant midpoint” value is 8.6 M and the unfolding free energy is 20.5 kJ/mol.
On the same counts, the results for I95A are 6.2 M and 33.1 kJ/mol.
Consider Y102A, for which, where the note is “25 °C”, the “denaturant midpoint” value was 5 M and the unfolding free energy worked out at 22.6 kJ/mol.

These data come from FireProtDB (doi:10.1021/bi951726o).
